Measured values taken from patent publication US20140289906A1, “Compositions Having Dicamba Decarboxylase Activity and Methods of Use” (priority 2013, published 2014).
Numbering of substitutions follows the chain as printed.

B1: 79 (protein)
chain: MATTTTPSTLIATLESHLTPTLAFTSPTTSPTQPALHLIPPTTLTKLRNLGPGRVKDMHMLGHSRQIISHIPVAAPPQICSRFNDAIHAATMTNTAKFSVLAVLPTDGMEAAKELARCVSKYRFVGGVIGLNRGLRINGEGWEELWGLAERLRIPIMFREMWPLAFEIVDYQHHLPYSALGPILTQLHTSHTSSPLPLVRLYLSSVFDHYPSLRLVLAHPGSLPSLVPRIESLINSIPATDKPKRSFLDVWQHNIYLTTADAQDMSSLRALLEQIPVDRVLYASNYPFEERGNELMNELRESEFLTNIEWERVAWVNAETLFNLKEAGTKEARQLTTIPSSRS
modifications: Pyrenophora teres
B2: 81 (protein, listed as Verticillium dahliae)
chain: MAASTKPKVVDIHTHMYPPSYIDILTSRTAIPVVRTFPQAADPRLILLDAEQQALDAALQDPTAKPPGRPLTSHYASLDQKIHFMDTHSIDISVVSLANPWLDFIEPKEAAATARSVNDEFEAMCASQPGRLFFFAALPLTAPLPALLEAVRHVAELEHCRGVILGTSGLGSGLDDPELVPVLEAVAAAALTVFLHPHYGLPNDVWGPRASAEYGHVLPLALGFPMETTIAVARMYLAGVFDRVPALRMLLAHSGGTLPFLAGRIESCILHDGQLVAEGKVGAARRTIWDVLREQVYLDAVIYSEIGLKAAIAASGGADRLMFGTDHPFFPPLGTDEQAKKESRINAGGSRPMITGNAMINGHGGLCNHITQSDYQDVVL
B3: 56 (protein)
chain: MAKIICLEEHYLDSELGRACMPVALEQAPFLGDWGKTVADGHNPDRSRPQIEKNALINAKGADLGSRRLRDMDEAGITLQILSVGGFPQLAPEDEAVTLNTAANDRLAEAVRNHPDRFAAFATLPWAQPKDAENELVRAVEKLGFKGALLNGRPSSCFLDHPDYDSLLSRFNKLNVPLYLHPGLPLKSVQQAYFTGFSAEVNARLSMFGWGWHHEAGIHLLRLMLSGAFDKYPNMQVISGHWGEMLPFWLQRLDDSLPLAATGLSRTLTRTFQEHVYVTPSGMLTLPHFKFIYELMGAERILFSVDYPYQTLDGVKTFIDSLPVNKAEKEAIAFRNAERLLGITA
modifications: Enterobacter aerogenes
B4: 53 (protein, listed as Granulicella tundricola)
chain: MARTITLEEHFVTDSFLRATGAYDKPAPPWLAQLQPKLLDLGDGRIAAMDEAGIDLQVLSLAALGFDALDAATATPLVHDINDELAAAVRANPTRLAAFASLALKDPQSAARELERAIQKLGFRGVLLDGTTDGLFLDDPRFTPVFEAAVALNVPIYLHPAPPPESVFDTYFTGLPEGVGQMLSIAGWGWHAETALHTLRLITNGVFDRYPTLQLIIGHMGEMLPMALARTSKALSHAARLRQPVAAYFQSNIHLTTSGYFTQPPLRCALDVVGIDRLMFSIDYPFSANTLGRDYLTELEQTLTPEDLAKLIHRNAESLLNLS
B5: 51 (protein, listed as Mycobacterium gilvum)
chain: MARVIAIEEHYAHPGLQPAEALANLRKHPQLARIQDKLEDLGAGRLADMDAAGIDMQVLSHTVPGAEALPAAQAVDVVRQTNDDLAEVIAAHPDRFAGFAALPMRDPQAAATELQRAVGTLGFCGAMINGLIEGRFLDHPDFTPLLSTAADLGVPLYLHPSFPPPQVAQIYFGGLPPVLADLLATAGWGWHAETALHVLRLISTGVFDRLPELRVIVGHMGEMIPFALARIDTVLSPMTELRQPVAQYFQTNVWFTTSGYTTFPPLQCALSTVGIDRLIFSVDYPYTDNASARALLDTAPISPVDREKLAHATVEALLRV
B6: 50 (protein, listed as Streptomyces sp.)
chain: MARIVTLEEHWTDPAVTAAGMPNLLDHVPGYAAAFDPDTGMPYPRHPELLEDLGAARIADMDRHGITTQVLSLVNTFLPADVAPRLTAAANDAMAAAVEAFPGRFAAFATLPTAVPGAAADELRRCVGELGFVGTMIMGRTDGEFLDQPRFDPILRAASDLSVPVYLHPAPPPVAVSEASYAGGLSPAVSAAFRLAAWGWHQETAVHLLHLVLAGVLDRYPGLQFVLGHWGEFIPFYLDRLDESMPRRMTGLDRTFREYFRDNVFITPSGMFSQAQLRYCADTVGTDRIIHSVDFPMLGNEGAVSFLTDSHLSREDQEKIAHGNADALLGLG
B7: 58 (protein)
chain: MARVIALEEHYATTEFLRGPGTWLASRPGIVEPAGDLGDGRIAAMDQAGVDLAVLSLAAPGVEQLDPDDAVRLARDCNDQLAAAVRRYPDRLAGFATVPTSAPDRAADELERAVRGLGFPGAVINGHSRGRYLDDPFFEPVLARAAELQAPIYLHPTIPPAGVIESSYAGFAEPVTFALATVGWGWHINTATHALRMILGGVFDRHPSLQMIIGHMGEATSFMLPRFDATLKPELTGLNHPVSSYLRENFHYTFANFNDHATYANLVAQVGIERVAFSADYPFGSMVDARAFLDGLPLSDDERAAISHRNAEKLLGL
modifications: Mycobacterium colombiense
B8: 57 (protein)
chain: MAKLICVEEHVLDPAVGAATQSLVRAEAPYLPDWGSRVLDGRHVADRSRPHVIAPSESARKALEMGEPRLADMDAASIDMQVLSYGGFPQLLPAAQAIDLNRAANDKLALAAQAHPARFAGFATLPWQAPEAAARELERAVKQLGLKGALINGRPGDTFLDDARYAPILAAFDELKVPLYVHPGLPLPAVQAPYYGGFERELSARLAMFAWGWHNEAGIQVVRMLLAGVFDRHPRLQLISGHWGEMVPFFLQRLEDSIPQEASGLQRPIVQTYREHVYISPSGMFTLPHFQFIHALMGAQRILYSIDYPYQSLDGARAFIERLPISDTDKALIAHRNAERLLHL
modifications: Collimonas fungivorans
B9: 49 (protein, listed as Streptomyces sp.)
chain: MAKIIALEEHFSDPAVAKAGAARARALSPGFAASYSPASGLPYSPSPEVLENLAEKRLADMDAGGITMQVLSGLGAQTVPADVAPALVAGSNDKAAAAVRAHPDRFAAFAALPTATPEAAVAELDRSVNELGFVGTLIMGRTEGEFLDAPRFEPILARAAALKVPVFLHPGVPPREITDSNYAAGLPTGIGTRLQTAAWGWHQETAVHFLHLVHSGVLDRYPDLQFILGHWGEMIPFYLDRVDEALPQRATGLDRSFHEYFRENVYLAPSGMWSQAQLRFCLETVPLERIVFAVDYPFIGNEGAVPFLEKAELPQADKRKIAHENAERLLGL
B10: 54 (protein, listed as Streptomyces sp.)
chain: B9 chain with R25Q, T116A, V128I, D223G, Q315E
B11: 52 (protein, listed as Streptomyces sp.)
chain: B9 chain with R25Q, G75S, T116A, M234T, V285F, Q315E
B12: 2 (protein, listed as Serratia sp.)
chain: MAKIICLEEHTLDKALVMASMPAALEQAPFLSDWGKTVTDGNLPDRSRPQIEKNDLINIKGADIGRGRLDDMDVAGITMQVLSVGGFPHLISAAEGVDLNRAANDRLADAVNAHPDRFAAFATLPWAQPDSAEKELERAVKELGFKGALLNGRPSTHFLDHPDYDGLLARFNALGVPLYLHPGLPVRSVQQAYYGGFSDEVTARLSMFGWGWHHEAGIHLLRLILSGAFDKYPNLQVISGHWGEMLPFWLQRLDDSLPQAATGLRRTIAQTFKEQVYVTPSGMLTLPHFQFIYALLGAERIIFSVDYPYQTLDGVKAFIQSLPVPEEAKEAIAFRNAERLLGLTS
B13: 55 (protein, listed as Serratia sp.)
chain: B12 chain

Test: 14C assay: 14CO2 capture from [14C]-carboxyl-labeled dicamba with IPTG-induced recombinant E. coli cells
Conditions: IPTG-induced recombinant E. coli cells; 14CO2 from [14C]-carboxyl-labeled dicamba

Molecule	Dicamba Decarboxylase Activity
B1	High
B2	High
B3	High
B4	High
B5	High
B6	High
B7	High
B8	High
B9	High
B10	High
B11	High
B12	High
B13	High

Same assay, conditions: among the 108 sequences tested; recombinant E. coli cell assay

Molecule	decarboxylation activity of dicamba
B1	showed decarboxylation activity of dicamba
B2	showed decarboxylation activity of dicamba
B3	showed decarboxylation activity of dicamba
B4	showed decarboxylation activity of dicamba
B5	showed decarboxylation activity of dicamba
B6	showed decarboxylation activity of dicamba
B7	showed decarboxylation activity of dicamba
B8	showed decarboxylation activity of dicamba
B9	showed decarboxylation activity of dicamba
B10	showed decarboxylation activity of dicamba
B11	showed decarboxylation activity of dicamba
B12	showed decarboxylation activity of dicamba
B13	showed decarboxylation activity of dicamba

Same assay, conditions: dicamba decarboxylation activity

Molecule	Enzymatic Detection level
B1	High
B2	High
B3	High
B4	High
B5	High
B6	High
B7	High
B8	High
B9	High
B10	High
B11	High
B12	High
B13	High
